B1: human GSDMD [human] / IpaH7.8 protein (residues 23–565) [Shigella flexneri] (parent)
chain 1: MGSAFERVVRRVVQELDHGGEFIPVTSLQSSTGFQPYCLVVRKPSSSWFWKPRYKCVNLSIKDILEPDAAEPDVQRGRSFHFYDAMDGQIQGSVELAAPGQAKIAGGAAVSDSSSTSMNVYSLSVDPNTWQTLLHERHLRQPEHKVLQQLRSRGDNVYVVTEVLQTQKEVEVTRTHKREGSGRFSLPGATCLQGEGQGHLSQKKTVTIPSGSTLAFRVAQLVIDSDLDVLLFPDKKQRTFQPPATGHKRSTSEGAWPQLPSGLSMMRCLHNFLTDGVPAEGAFTEDFQGLRAEVETISKELELLDRELCQLLLEGLEGVLRDQLALRALEEALEQGQSLGPVEPLDGPAGAVLECLVLSSGMLVPELAIPVVYLLGALTMLSETQHKLLAEALESQTLLGPLELVGSLLEQSAPWQERSTMSLPPGLLGNSWGEGAPAWVLLDECGLELGEDTPHVCWEPQAQGRMCALYASLALLSGLSQEPH
chain 2: SNEHYLRILTEWEKNSSPGEERGIAFNRLSQCFQNQEAVLNLSDLNLTSLPELPKHISALIVENNKLTSLPKLPAFLKELNADNNRLSVIPELPESLTTLSVRSNQLENLPVLPNHLTSLFVENNRLYNLPALPEKLKFLHVYYNRLTTLPDLPDKLEILCAQRNNLVTFPQFSDRNNIRQKEYYFHFNQITTLPESFSQLDSSYRINISGNPLSTRVLQSLQRLTSSPDYHGPQIYFSMSDGQQNTLHRPLADAVTAWFPENKQSDVSQIWHAFEHEEHANTFSAFLDRLSDTVSARNTSGFREQVAAWLEKLSASAELRQQSFAVAADATESCEDRVALTWNNLRKTLLVHQASEGLFDNDTGALLSLGREMFRLEILEDIARDKVRTLHFVDEIEVYLAFQTMLAEKLQLSTAVKEMRFYGVSGVTANDLRTAEAMVRSREENEFTDWFSLWGPWHAVLKRTEADRWAQAEEQKYEMLENEYSQRVADRLKASGLSGDADAEREAGAQVMRETEQQIYRQLTDEVLALRLSENGSRLHHS

Variants of: B1
Assay: ITC
Details: with IpaH7.8 protein (residues 23–565) [Shigella flexneri]
chain 1 S124R was tested, and the Kd was 230 nM.

From paper PMC9813358, “Insights into the GSDMB-mediated cellular lysis and its targeting by IpaH7.8” (Nature Communications, 2023)
